The record followed here is paper PMC4300948 (Nanoscale, 2014).

In experiment [1] the target is FVIII free human von Willebrand factor (VWF) (human, UniProt P04275 764-2813).
For experiment [2], the target named is physiologic human von Willebrand factor (VWF) (human, UniProt P04275 764-2813).

Where no end group is shown, it is not given here.

Take TRYLRIHPQSWVHQI (also: lipid-peptide bioconjugate, displayed on liposome surface) [VWF-binding peptide (VBP), FVIII-derived, decorated on liposomal nanoconstructs]: the binding result in experiment [1] and in experiment [2] was “binds” throughout.
